Earlier results in paper PMC7261628.

Target: Cathepsin B propeptide (prosegment) (UniProt P07858)
Assay: Enzyme inhibition kinetics

Substance: Cathepsin B His110Ala mutant H110A
- Ki (pH 4.0): 2 nM

Substance: Cathepsin B, mature enzyme (wild type)
- Ki (pH 4.0): 82 nM
- Ki (pH 6.0): 3.7 nM
